Paper doi:10.1101/583088

Biological target: 3-methylaspartate ammonia lyase from Citrobacter amalonaticus (Citrobacter amalonaticus) (UniProt O66145)
Assay: SEC

**Q.** Which stoichiometry N does the source give for “3-methylaspartate ammonia lyase from Citrobacter amalonaticus (from UniProt O66145 1-413) (enzyme)” here?
**A.** The stoichiometry N was 2.
